B2: recombinant Fc-tagged DcR3 (expressed as described in Example 7, purified by Protein A chromatography) (Fc fusion)
chain: VAETPTYPWRDAETGERLVCAQCPPGTFVQRPCRRDSPTTCGPCPPRHYTQFWNYLERCRYCNVLCGEREEEARACHATHNRACRCRTGFFAHAGFCLEHASCPPGAGVIAPGTPSQNTQCQPCPPGTFSASSSSSEQCQPHRNCTALGLALNVPGSSSHDTLCTSCTGFPLSTRVPGAEECERAVIDFVAFQDISIKRLQRLLQALEAPEGWGPTPRAGRAALQLKLRRRLTELLGAQDGALLVRLLQALRVARMPGLERSVRERFLPVH
modifications: biotinylated in the FACS assay (sites not given)
notes: also called biotinylated Fc-tagged DcR3; DcR3-IgG; not shown: Fc tag (Fc region of IgG)

Legend:
[1] = target: Fas expressed on human HeLa S3 cells (human) (UniProt P25445); assay: cell-based or functional assay
[2] = target: B2; assay: FACS, biotinylated Fc-tagged DcR3 on transiently transfected 293 cells
Excerpt: (§1) Human 293 cells (ATCC CRL 1573) were transiently transfected with empty pRK5 vector (see Example 5) or pRK5 encoding full-length TNF-alpha [Pennica et al., Nature, 312:724-729 (1984)], Fas ligand [Suda et al., Cell, 75:1169-1178 (1993)], LIGHT [Mauri et al., Immunity, 8:21 (1998)], Apo-2 ligand [[WO 97/25428 published Jul. 17, 1997)], Apo-3 ligand (also referred to as TWEAK) [Marsters et al., Current Biology, 8:525 (1998); Chicheportiche et al., J. Biol. Chem., 272:32401 (1997)], or […] (also referred to as TRANCE, RANKL) [Wong et al., J. Biol. Chem., 272:25190 (1997); Anderson et al., Nature, 390:175 (1997); Lacey et al., Cell, 93:165 (1998)].

[3] = target: T1, OPG (also referred to as TRANCE, RANKL), full-length, expressed from pRK5 on transiently transfected 293 cells (UniProt O14788 1-317, limits assumed); assay: as above
T1 construct: whole, on cells
T1 sequence (looked up): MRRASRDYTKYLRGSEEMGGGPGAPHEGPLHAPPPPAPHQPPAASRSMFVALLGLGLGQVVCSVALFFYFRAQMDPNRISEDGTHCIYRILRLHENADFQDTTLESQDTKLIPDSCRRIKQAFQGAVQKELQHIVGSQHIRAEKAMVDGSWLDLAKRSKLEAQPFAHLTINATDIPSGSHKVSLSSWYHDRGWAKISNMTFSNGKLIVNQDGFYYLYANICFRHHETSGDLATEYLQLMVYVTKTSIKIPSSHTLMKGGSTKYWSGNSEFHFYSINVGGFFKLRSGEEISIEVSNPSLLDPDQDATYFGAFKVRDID
Excerpt: as §1

[4] = target: T2, Fc-tagged ectodomain of TNFR1 (UniProt P19438 30-211, limits assumed); assay: co-immunoprecipitation with protein A-sepharose, anti-Fas ligand immunoblot
T2 construct: extracellular domain; Control immunoadhesin; also called Fc-tagged TNFR1; not shown: Fc tag
T2 sequence (looked up): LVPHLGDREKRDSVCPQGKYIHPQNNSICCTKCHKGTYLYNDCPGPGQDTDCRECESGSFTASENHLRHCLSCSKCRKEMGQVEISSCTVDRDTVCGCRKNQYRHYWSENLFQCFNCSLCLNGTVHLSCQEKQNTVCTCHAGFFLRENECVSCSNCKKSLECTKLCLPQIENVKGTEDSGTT
Protocol: Precipitates were resolved by SDS polyacrylamide gel electrophoresis (4-20% gradient) under reducing conditions (25 mM dithiothreitol), and visualized by immunoblot, followed by enhanced chemiluminescence detection (Amersham) with rabbit polyclonal anti-Fas ligand antibody (Oncogene Research Products) at 2 microgram/ml.

Sequence of Fas expressed on human HeLa S3 cells (human) (P25445 26-335): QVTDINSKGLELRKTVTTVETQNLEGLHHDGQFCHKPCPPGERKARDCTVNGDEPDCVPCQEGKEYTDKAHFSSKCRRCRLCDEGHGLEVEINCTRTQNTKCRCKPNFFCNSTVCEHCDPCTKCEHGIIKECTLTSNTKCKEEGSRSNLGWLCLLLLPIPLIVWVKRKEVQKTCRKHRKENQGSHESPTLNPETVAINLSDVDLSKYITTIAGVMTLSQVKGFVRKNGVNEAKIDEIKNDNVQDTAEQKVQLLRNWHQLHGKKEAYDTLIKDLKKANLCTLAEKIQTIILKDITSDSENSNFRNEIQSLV

## full-length Fas ligand expressed from pRK5 on transiently transfected cells (from UniProt P48023 1-281)
[1]
  apoptosis of transfected HeLa S3 cells (annexin binding by FACS): 25%

B1: full-length Apo-3 ligand (also referred to as TWEAK) expressed from pRK5 on transiently transfected 293 cells (ligand, UniProt O43508 1-249, looked up)
chain: MAARRSQRRRGRRGEPGTALLVPLALGLGLALACLGLLLAVVSLGSRASLSAQEPAQEELVAEEDQDPSELNPQTEESQDPAPFLNRLVRPRRSAPKGRKTRARRAIAAHYEVHPRPGQDGAQAGVDGTVSGWEEARINSSSPLRYNRQIGEFIVTRAGLYYLYCQVHFDEGKAVYLKLDLLVDGVLALRCLEEFSATAASSLGPQLRLCQVSGLLALRPGSSLRIRTLPWAHLKAAPFLTYFGLFQVH
notes: whole, on cells
[2]
  binding result: no binding

## B2
[3]
  binding result: no binding

B3: purified, soluble Fas ligand (Alexis Biochemicals) (ligand, UniProt P48023 103-281, looked up)
chain: QLFHLQKELAELRESTSQMHTASSLEKQIGHPSPPPEKKELRKVAHLTGKSNSRSMPLEWEDTYGIVLLSGVKYKKGGLVINETGLYFVYSKVYFRGQSCNNLPLSHKVYMRNSKYPQDLVMMEGKMMSYCTTGQMWARSSYLGAVFNLTSADHLYVNVSELSLVNFEESQTFFGLYKL
notes: Commercial soluble form
[4]
  binding result: no binding
